Source: patent US20220153847A1 (Chugai, published 2022)
Changes are numbered by the printed parent chain.

T1: HLA-DQ2.2 on Ba/F3 cells (human, UniProt P01909 24-216, limits assumed)
T1 construct: whole, on cells; also called Ba/F3-HLA-DQ2.2
T1 MHC II alpha: not shown
T1 MHC II beta: not shown

T2: HLA-DQ2.5 on HLA-DQ2.5-positive PBMC B cells (human, UniProt P01909 24-254; P01920 33-261)
T2 construct: whole, on cells; also called HLA-DQ2.5+ PBMC B cell
T2 MHC II alpha: not shown
T2 MHC II beta: not shown

B1: DQN0344xx//DQN0429cc (bispecific antibody, human IgG1, kappa)
heavy 1: QSLEESGGGLVKPGGTLTLTCTASGFSFSSSYWMCWVRQAPGKGLEWVACVYGGSDTTYYASWTKGRFTISKGSSTTVALQVTSLTAADTATYFCARDPLNYYYYGELNLWGPGTLVTVSSASTKGPSVFPLAPSSKSTSGGTAALGCLVKDYFPEPVTVSWNSGALTSGVHTFPAVLQSSGLYSLSSVVTVPSSSLGTQTYICNVNHKPSNTKVDKRVEPKSCDKTHTCPPCPAPELRRGPSVFLFPPKPKDTLMISRTPEVTCVVVDVSHEDPEVKFNWYVDGVEVHNAKTKPREEQYNSTYRVVSVLTVLHQDWLNGKEYKCKVSNKALPAPIEKTISKAKGQPREPQVYTLPPSREEMTKNQVSLTCLVKGFYPSDIAVEWESNGQPENNYKTTPPYLDSDGSFFLYSKLTVDKSRWQQGNVFSCSVMHEALHNHYTQESLSLSP
light 1: AVVLTQTASPVSAAVGGTVTIRCQATENIYSGLAWYQQKPGQPPKVLIYYVSTLASGVPSRFKGSGSGTEYTLTISGVQCDDAATYYCQTYHDISNVTFGGGTKVEIKRTVAAPSVFIFPPSDEQLKSGTASVVCLLNNFYPREAKVQWKVDNALQSGNSQESVTEQDSKDCTYSLSSTLTLSKADYEKHKVYACEVTHQGLSSPVTKSFNRGEC
heavy 2: QEQLVESGGGLVQPEGSLTLTCTASGFSFSSSYYMCWVRQAPGKGLEWIGCIYTGSGSTDYATWVNGRFTISKTSSTTVTLQMTSLTVADTATYFCARDIGIDYNFWGPGTLVTVSSASTKGPSVFPLAPSSKSTSGGTAALGCLVKDYFPEPVTVSWNSGALTSGVHTFPAVLQSSGLYSLSSVVTVPSSSLGTQTYICNVNHKPSNTKVDKRVEPKSCDKTHTCPPCPAPELRRGPSVFLFPPKPKDTLMISRTPEVTCVVVDVSHEDPEVKFNWYVDGVEVHNAKTKPREEQYNSTYRVVSVLTVLHQDWLNGKEYKCKVSNKALPAPIEKTISKAKGQPREPQVYTLPPSRKEMTKNQVSLTCLVKGFYPSDIAVEWESNGQPENNYKTTPPYLDSDGSFFLYSKLTVDKSRWQQGNVFSCSVMHEALHNHYTQKSLSLSP
light 2: AFELTQTPSFVEARVGGTVTIKCQATQSISSYLNWYQQKPGQPPKLLIYYASTLASGVPSRFKGSGSGTEFTLTISGVECADAATYYCHYGISYVSFGGGTKVEIKRTVAAPSVFIFPPSDEQLKSGTASVVCLLNNFYPREAKVQWKVDNALQSGNSQESVTEQDSKDCTYSLSSTLTLSKADYEKHKVYACEVTHQGLSSPVTKSFNRGEC
B2: DQN0429cc//IC17 (bispecific antibody, human IgG1, kappa)
heavy 1: B1 heavy 2 with K356E, K439E
light 1: B1 light 2
heavy 2: QVQLQQSGPQLVRPGASVKISCKASGYSFTSYWMHWVNQRPGQGLEWIGMIDPSYSETRLNQKFKDKATLTVDKSSSTAYMQLSSPTSEDSAVYYCALYGNYFDYWGQGTTLTVSSASTKGPSVFPLAPSSKSTSGGTAALGCLVKDYFPEPVTVSWNSGALTSGVHTFPAVLQSSGLYSLSSVVTVPSSSLGTQTYICNVNHKPSNTKVDKRVEPKSCDKTHTCPPCPAPELRRGPSVFLFPPKPKDTLMISRTPEVTCVVVDVSHEDPEVKFNWYVDGVEVHNAKTKPREEQYNSTYRVVSVLTVLHQDWLNGKEYKCKVSNKALPAPIEKTISKAKGQPREPQVYTLPPSRKEMTKNQVSLTCLVKGFYPSDIAVEWESNGQPENNYKTTPPYLDSDGSFFLYSKLTVDKSRWQQGNVFSCSVMHEALHNHYTQKSLSLSP
light 2: DIQMTQSSSSFSVSLGDRVTITCKASEDIYNRLAWYQQKPGNAPRLLISGATSLETGVPSRFSGSGSGKDYTLSITSLQTEDVATYYCQQYWSTPYTFGGGTKLEVKRTVAAPSVFIFPPSDEQLKSGTASVVCLLNNFYPREAKVQWKVDNALQSGNSQESVTEQDSKDSTYSLSSTLTLSKADYEKHKVYACEVTHQGLSSPVTKSFNRGEC

Key:
[1] = molecular target: DQ2.5/alpha 1 gliadin peptide on IHW9023 cells (human); test: cell-based or functional assay
[2] = molecular target: DQ2.5/alpha 2 gliadin peptide on IHW9023 cells (human); test: cell-based or functional assay
[3] = molecular target: DQ2.5/omega 1 gliadin peptide on IHW9023 cells (human); test: cell-based or functional assay
[4] = molecular target: DQ2.5/omega 2 gliadin peptide on IHW9023 cells (human); test: cell-based or functional assay
[5] = molecular target: DQ2.5/gamma 1 gliadin peptide on IHW9023 cells (human); test: cell-based or functional assay
[6] = molecular target: DQ2.5/BC hordein peptide on IHW9023 cells (human); test: cell-based or functional assay
[7] = molecular target: DQ2.5/alpha 1b gliadin peptide on IHW9023 cells (human); test: cell-based or functional assay
HLA-DQ2.2 on Ba/F3 cells = molecular target: T1, HLA-DQ2.2 on Ba/F3 cells; test: FACS, Ba/F3 cells; IC17=0%, DQN0139bb//IC17=100%;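 further: flow cytometry binding of anti-HLA-DQ antibodies at 5 µg/mL, incubated 30 min at room temperature with Ba/F3 lines presenting HLA-DQ/peptide complexes; antibody tested at 5 microgram/mL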
From the text: (§1) The binding of anti-HLA-DQ antibodies to Ba/F3-HLA-DQ2.5, Ba/F3-HLA-DQ2.2, Ba/F3-HLA-DQ7.5, Ba/F3-HLA-DQ8, Ba/F3-HLA-DQ5.1, Ba/F3-HLA-DQ6.3, Ba/F3-HLA-DQ7.3, Ba/F3-HLA-DR, Ba/F3-HLA-DP, Ba/F3-HLA-DQ2.5/CLIP, Ba/F3-HLA-DQ2.5/HBV, Ba/F3-HLA-DQ2.5/Salmonella, Ba/F3-HLA-DQ2.5/TPO, Ba/F3-HLA-DQ2.5/M. bovis, Ba/F3-HLA-DQ2.5/alpha 1 gliadin, Ba/F3-HLA-DQ2.5/alpha 2 gliadin, Ba/F3-HLA-DQ2.5/gamma 1 gliadin, Ba/F3-HLA-DQ2.5/gamma 2 gliadin, Ba/F3-HLA-DQ2.5/omega 1 gliadin, Ba/F3-HLA-DQ2.5/omega 2 gliadin, Ba/F3-HLA-DQ2.5/BC hordein, Ba/F3-HLA-DQ2.5/alpha 3 gliadin, Ba/F3-HLA-DQ2.5/alpha 1b gliadin, Ba/F3-HLA-DQ2.5/gamma 4b gliadin, Ba/F3-HLA-DQ2.5/avenin 1, Ba/F3-HLA-DQ2.5/avenin 2, Ba/F3-HLA-DQ2.5/avenin 3, Ba/F3-HLA-DQ2.5/hordein 1, Ba/F3-HLA-DQ2.5/hordein 2, Ba/F3-HLA-DQ2.5/secalin 1, Ba/F3-HLA-DQ2.5/secalin 2, Ba/F3-HLA-DQ2.5/14mer 1, Ba/F3-HLA-DQ2.5/33mer gliadin, Ba/F3-HLA-DQ2.5/26mer gliadin, was tested. 5 microgram/mL of each of the anti-HLA-DQ antibodies was incubated with each cell line for 30 minutes at room temperature and washed with FACS buffer (2% FBS, 2 mM EDTA in PBS).

[8] = molecular target: T3, HLA-DQ2.5/alpha 1 gliadin peptide complex on Ba/F3 cells (human); test: FACS, Ba/F3 cells; IC17=0%, DQN0139bb//IC17=100%;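 further: flow cytometry binding of anti-HLA-DQ antibodies at 5 µg/mL, incubated 30 min at room temperature with Ba/F3 lines presenting HLA-DQ/peptide complexes; antibody tested at 5 microgram/mL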
T3 construct: whole, on cells; also called Ba/F3-HLA-DQ2.5/alpha 1 gliadin; HLA-DQ2.5/a1 gliadin
From the text: as §1

[9] = molecular target: T4, HLA-DQ2.5/alpha 2 gliadin peptide complex on Ba/F3 cells (human); test: FACS, Ba/F3 cells; IC17=0%, DQN0139bb//IC17=100%;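 further: flow cytometry binding of anti-HLA-DQ antibodies at 5 µg/mL, incubated 30 min at room temperature with Ba/F3 lines presenting HLA-DQ/peptide complexes; antibody tested at 5 microgram/mL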
T4 construct: whole, on cells; also called Ba/F3-HLA-DQ2.5/alpha 2 gliadin; HLA-DQ2.5/a2 gliadin
From the text: as §1

[10] = molecular target: T5, HLA-DQ2.5/gamma 1 gliadin peptide complex on Ba/F3 cells (human); test: FACS, Ba/F3 cells; IC17=0%, DQN0139bb//IC17=100%;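 further: flow cytometry binding of anti-HLA-DQ antibodies at 5 µg/mL, incubated 30 min at room temperature with Ba/F3 lines presenting HLA-DQ/peptide complexes; antibody tested at 5 microgram/mL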
T5 construct: whole, on cells; also called Ba/F3-HLA-DQ2.5/gamma 1 gliadin; HLA-DQ2.5/g1 gliadin
From the text: as §1

[11] = molecular target: T6, HLA-DQ2.5/gamma 2 gliadin peptide complex on Ba/F3 cells (human); test: FACS, Ba/F3 cells; IC17=0%, DQN0139bb//IC17=100%
T6 construct: whole, on cells; also called Ba/F3-HLA-DQ2.5/gamma 2 gliadin; HLA-DQ2.5/g2 gliadin
From the text: as §1

[12] = molecular target: T7, HLA-DQ2.5/omega 1 gliadin peptide complex on Ba/F3 cells (human); test: FACS, Ba/F3 cells; IC17=0%, DQN0139bb//IC17=100%
T7 construct: whole, on cells; also called Ba/F3-HLA-DQ2.5/omega 1 gliadin; HLA-DQ2.5/w1 gliadin
From the text: as §1

[13] = molecular target: T8, HLA-DQ2.5/omega 2 gliadin peptide complex on Ba/F3 cells (human); test: FACS, Ba/F3 cells; IC17=0%, DQN0139bb//IC17=100%
T8 construct: whole, on cells; also called Ba/F3-HLA-DQ2.5/omega 2 gliadin; HLA-DQ2.5/w2 gliadin
From the text: as §1

[14] = molecular target: T9, HLA-DQ2.5/BC hordein peptide complex on Ba/F3 cells (human); test: FACS, Ba/F3 cells; IC17=0%, DQN0139bb//IC17=100%
T9 construct: whole, on cells; also called Ba/F3-HLA-DQ2.5/BC hordein
From the text: as §1

[15] = molecular target: T10, HLA-DQ2.5/alpha 3 gliadin peptide complex on Ba/F3 cells (human); test: FACS, Ba/F3 cells; IC17=0%, DQN0139bb//IC17=100%
T10 construct: whole, on cells; also called Ba/F3-HLA-DQ2.5/alpha 3 gliadin; HLA-DQ2.5/a3 gliadin
From the text: as §1

[16] = molecular target: T11, HLA-DQ2.5/alpha 1b gliadin peptide complex on Ba/F3 cells (human); test: FACS, Ba/F3 cells; IC17=0%, DQN0139bb//IC17=100%
T11 construct: whole, on cells; also called Ba/F3-HLA-DQ2.5/alpha 1b gliadin; HLA-DQ2.5/a1b gliadin
From the text: as §1

[17] = molecular target: T12, HLA-DQ2.5/gamma 4b gliadin peptide complex on Ba/F3 cells (human); test: FACS, Ba/F3 cells; IC17=0%, DQN0139bb//IC17=100%
T12 construct: whole, on cells; also called Ba/F3-HLA-DQ2.5/gamma 4b gliadin; HLA-DQ2.5/g4b gliadin
From the text: as §1

[18] = molecular target: T13, HLA-DQ2.5/avenin 1 peptide complex on Ba/F3 cells (human); test: FACS, Ba/F3 cells; IC17=0%, DQN0139bb//IC17=100%
T13 construct: whole, on cells; also called Ba/F3-HLA-DQ2.5/avenin 1
From the text: as §1

[19] = molecular target: T14, HLA-DQ2.5/avenin 2 peptide complex on Ba/F3 cells (human); test: FACS, Ba/F3 cells; IC17=0%, DQN0139bb//IC17=100%
T14 construct: whole, on cells; also called Ba/F3-HLA-DQ2.5/avenin 2
From the text: as §1

[20] = molecular target: T15, HLA-DQ2.5/avenin 3 peptide complex on Ba/F3 cells (human); test: FACS, Ba/F3 cells; IC17=0%, DQN0139bb//IC17=100%
T15 construct: whole, on cells; also called Ba/F3-HLA-DQ2.5/avenin 3
From the text: as §1

[21] = molecular target: T16, HLA-DQ2.5/hordein 1 peptide complex on Ba/F3 cells (human); test: FACS, Ba/F3 cells; IC17=0%, DQN0139bb//IC17=100%
T16 construct: whole, on cells; also called Ba/F3-HLA-DQ2.5/hordein 1
From the text: as §1

[22] = molecular target: T17, HLA-DQ2.5/hordein 2 peptide complex on Ba/F3 cells (human); test: FACS, Ba/F3 cells; IC17=0%, DQN0139bb//IC17=100%
T17 construct: whole, on cells; also called Ba/F3-HLA-DQ2.5/hordein 2
From the text: as §1

[23] = molecular target: T18, HLA-DQ2.5/secalin 1 peptide complex on Ba/F3 cells (human); test: FACS, Ba/F3 cells; IC17=0%, DQN0139bb//IC17=100%
T18 construct: whole, on cells; also called Ba/F3-HLA-DQ2.5/secalin 1
From the text: as §1

[24] = molecular target: T19, HLA-DQ2.5/secalin 2 peptide complex on Ba/F3 cells (human); test: FACS, Ba/F3 cells; IC17=0%, DQN0139bb//IC17=100%
T19 construct: whole, on cells; also called Ba/F3-HLA-DQ2.5/secalin 2
From the text: as §1

[25] = molecular target: T20, HLA-DQ2.5/14mer 1 peptide complex on Ba/F3 cells (human); test: FACS, Ba/F3 cells; IC17=0%, DQN0139bb//IC17=100%
T20 construct: whole, on cells; also called Ba/F3-HLA-DQ2.5/14mer 1
From the text: as §1

[26] = molecular target: T21, HLA-DQ2.5/26mer gliadin peptide complex on Ba/F3 cells (human); test: FACS, Ba/F3 cells; IC17=0%, DQN0139bb//IC17=100%
T21 construct: whole, on cells; also called Ba/F3-HLA-DQ2.5/26mer gliadin
From the text: as §1

[27] = molecular target: T2, HLA-DQ2.5 on HLA-DQ2.5-positive PBMC B …; test: FACS, PBMC B cells; IC17=0%, DQN0139bb//IC17=100%
[28] = molecular target: T22, HLA-DQ2.5/33mer gliadin peptide complex on Ba/F3 cells (human); test: FACS, Ba/F3 cells; IC17=0%, DQN0139bb//IC17=100%
T22 construct: whole, on cells; also called Ba/F3-HLA-DQ2.5/33mer gliadin
From the text: as §1

| Binder | % MFI (HLA-DQ2.2 on Ba/F3 cells) | % MFI [8] | % MFI [9] | % MFI [10] | % MFI [11] | % MFI [12] | % MFI [13] | % MFI [14] | % MFI [15] | % MFI [16] | % MFI [17] | % MFI [21] | % MFI [22] | % MFI [23] | % MFI [24] | % MFI [25] | % MFI [26] | also measured |
| --- | --- | --- | --- | --- | --- | --- | --- | --- | --- | --- | --- | --- | --- | --- | --- | --- | --- | --- |
| B1 | 0.8% | 63.1% | 58.7% | 16.9% | 1.3% | 43% | 19.3% | 18.5% | 18% | 64.6% | 6.2% | 20.3% | 90% | 37.8% | 43.3% | 19.4% | 30.7% | IC50, Jurkat NFAT-Luc T cell activation [1]: 0.0498 µg/mL; IC50, Jurkat NFAT-Luc T cell activation [2]: 0.00196 µg/mL; IC50, Jurkat NFAT-Luc T cell activation [3]: 0.0397 µg/mL; IC50, Jurkat NFAT-Luc T cell activation [4]: 0.0146 µg/mL; IC50, Jurkat NFAT-Luc T cell activation [5]: 0.0947 µg/mL; IC50, Jurkat NFAT-Luc T cell activation [6]: 0.415 µg/mL; IC50, Jurkat NFAT-Luc T cell activation [7]: 0.171 µg/mL; % MFI [18]: 14.2%; % MFI [19]: 18.3%; % MFI [20]: 19.6%; % MFI [27]: 0.4% |
| B2 | 0.3% | 3.5% | 55.5% | 12.6% | 0.8% | 11.5% | 45.4% | 14.9% | 0.8% | 9.2% | 3.2% | 1.5% | 93.2% | 10.9% | 30.6% | 16.3% | 26.2% | % MFI [28]: 67.1% |
